In ChEMBL document CHEMBL2396531, “Hybrid molecule from O2-(2,4-dinitrophenyl)diazeniumdiolate and oleanolic acid: a glutathione S-transferase π-activated nitric oxide prodrug with selective anti-human hepatocellular carcinoma activity and improved stability” (J Med Chem, 2013):

Substrate: [H][C@]12CC=C3[C@]4([H])CC(C)(C)CC[C@]4(C(=O)O[C@@H]4O[C@H](CO)[C@H](O)[C@H](O)[C@H]4O)CC[C@@]3(C)[C@]1(C)CC[C@@]1([H])C(C)(C)[C@@H](OC(=O)CN3CCN(c4cc(O/N=[N+](/[O-])N(C)CCO)c([N+](=O)[O-])cc4[N+](=O)[O-])CC3)CC[C@]21C
Assay: Activity at GSTpi (unknown origin) by Michaelis-Menten equation
Format: ADME, Homo sapiens

B1: Glutathione S-transferase P (Homo sapiens) (protein)
chain: MPPYTVVYFPVRGRCAALRMLLADQGQSWKEEVVTVETWQEGSLKASCLYGQLPKFQDGDLTLYQSNTILRHLGRTLGLYGKDQQEAALVDMVNDGVEDLRCKYISLIYTNYEAGKDDYVKALPGQLKPFETLLSQNQGGKTFIVGDQISFADYNLLDLLLIHEVLAPGCLDAFPLLSAYVGRLSARPKLKAFLASPEYVNLPINGNGKQ
Work on B1 yielded a Km of 342 µM, a Vmax of 15.1 µmol/min and a kcat of 6.95 s⁻¹. It also gave a kcat/Km of 20100 M⁻¹ s⁻¹.
